From patent US20190031729A1 (Pieris, published 2019)

Biological target: T1, cynomolgus LAG-3 on CHO cells (cynomolgus)
T1 construct: whole, on cells; also called CHO::cyLAG-3; CHO cells transfected with cynomolgus LAG-3
Assay: FACS on CHO cells transfected with cynomolgus LAG-3
Procedure: 5×10⁴ cells per well were pre-incubated for 1 h in ice-cold PBS containing 5% fetal calf serum (PBS-FCS). […] Cells were washed twice in ice-cold PBS using centrifugation at 300×g and then incubated with a rabbit anti-lipocalin primary antibody (polyclonal rabbit anti-hTlc, Pieris) for 30 min on ice. Cells were then again washed twice in ice-cold PBS, re-suspended in PBS-FCS and incubated 30 min on ice with an antibody labelled with Alexafluor647 (Jackson Immunologics). Cells were subsequently washed and analyzed using intellicyt IQue Flow cytometer (Intellicyt). Fluorescent data generated by lipocalin mutein binding to LAG-3 expressing cells were analyzed using Forecyt software and resulted geometric fluorescent mean were plotted and fitted using Graphpad software.

B1: benchmark anti-LAG-3 antibody, BMS 986016 (SEQ ID NOs: 5 and 6) (antibody, V domains shown)
VH: QVQLQQWGAGLLKPSETLSLTCAVYGGSFSDYYWNWIRQPPGKGLEWIGEINHRGSTNSNPSLKSRVTLSLDTSKNQFSLKLRSVTAADTAVYYCAFGYSDYEYNWFDPWGQGTLVTVSS
VL: EIVLTQSPATLSLSPGERATLSCRASQSISSYLAWYQQKPGQAPRLLIYDASNRATGIPARFSGSGSGTDFTLTISSLEPEDFAVYYCQQRSNWPLTFGQGTNLEIKR
EC50: 21 nM
